Measurements reported in patent publication CN113388028A (SHENZHEN FUTIAN GEWU ZHIKANG PATHOGEN RES INSTITUTE; …, dated 2021).

Columns and labels:
[1] = target: S1RBD-mFc (SARS-CoV-2 S1蛋白RBD与mFc的融合蛋白) (SARS-CoV-2)
MERS-S1 = target: T1, MERS-S1 (MERS-CoV, UniProt K9N5Q8 18-725); assay: ELISA
T1 construct: domain: S1

SARS-S1 = target: T2, SARS-S1 (SARS-CoV, UniProt P59594 14-667); assay: ELISA
T2 construct: domain: S1

[2] = target: S1RBD-his (SARS-CoV-2 S1蛋白RBD与His的融合蛋白) (SARS-CoV-2); assay: BLI (Octet QKe), antibody captured on AHC sensor, S1RBD-His in solution, 1:1 fit

| Binder | IC50 [1] [nM] | binding result (MERS-S1) | binding result (SARS-S1) | Kd [2] [nM] | koff [2] [s⁻¹] | kon [2] [M⁻¹ s⁻¹] |
| --- | --- | --- | --- | --- | --- | --- |
| 重组抗体8B4 (antibody, V domains shown, also called 8B4-Biotin) VH: EVQLVQSGAEVKKPGSSVKVSCKASGGTFSSFSISWVRQAPGQGLEWMGRIIPVLGIANYAQEVQGRVTITADKSTSTAYMELSSLRSEDTAVYFCTTDRFVEPATGPFFDYWGQGTLVTVSS VL: EIVMTQSPATLSVSPGERATLSCRASQSVSSNLAWYQQKPGQAPRLLIYGASTRATGIPARFSGSGSGTEFTLTISSLQSEDFAVYYCQQYSNWLTFGGGTKVEIK | 23.1 | no binding | no binding | 7.7 | 0.00157 | 204000 |
| 重组抗体24G8 (antibody, V domains shown, also called 24G8-Biotin) VH: EVQLVESGGGLVKPGGSLRLSCAASGFTFSSYSMNWVRQAPGKGLEWVSSISSSSSFIYYADSVKGRFTISRDNAKNSLYLQMNSLRAEDTAVYYCAREVHVDTAMDAYFDYWGQGTLVTVSS VL: DIQMTQSPSSLSASVGDRVTITCRASQTISSYLNWYQQKPGKAPKLLIFAASSLQSGVPSRFSGSGSGTDFTLTISSLQPEDFATYYCQQSYSNPPLTFGGGTKVEIE | 11.4 | – | – | 1.08 | 0.000264 | 244000 |
